Assay results reported in US20160108117A1 (UNIVERSITE DE NICE SOPHIA ANTIPOLIS, published 2016).

T1: peptide specific for human CXCL7 of sequence SDLYAELRCMCIKTTSGIHPKNIQS (SEQ ID NO: 20) coupled to keyhole … (human, coupled to keyhole limpet hemocyanine)
T1 construct: Immunisation peptide, used in the ELISA screen as a KLH conjugate; also called pCXCL7
T1 peptide: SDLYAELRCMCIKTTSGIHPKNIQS

T2: CXCL3 (human (presumed; the text does not …, UniProt P19876)
T2 construct: also called cytokine CXCL3; Gro-gamma
T2 sequence (chemokine, looked up): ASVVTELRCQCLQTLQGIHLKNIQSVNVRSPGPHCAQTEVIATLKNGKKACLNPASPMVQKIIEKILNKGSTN

T3: human chemokine CXCL7 (human, UniProt P02775 59-128)
T3 construct: also called NAP2; NAP-2
T3 sequence (looked up): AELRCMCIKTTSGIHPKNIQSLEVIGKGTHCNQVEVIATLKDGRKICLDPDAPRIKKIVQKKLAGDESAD

T4: human chemokine CXCL1 (human, UniProt P09341 35-107)
T4 construct: also called growth-regulated oncogene alpha; GRO-alpha
T4 sequence (looked up): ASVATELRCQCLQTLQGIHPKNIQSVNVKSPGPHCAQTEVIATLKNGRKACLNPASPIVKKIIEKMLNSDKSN

T5: human chemokine CXCL8 (human, UniProt P10145 28-99, limits assumed)
T5 construct: also called IL8; IL-8
T5 sequence (looked up): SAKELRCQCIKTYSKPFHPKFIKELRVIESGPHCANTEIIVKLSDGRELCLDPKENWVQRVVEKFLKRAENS


Assays:
[1] = target: T1, peptide specific for human CXCL7 of …; test: ELISA screen on KLH-coupled peptide
CXCL3 [2] = target: T2, CXCL3; test: SPR (Biacore 3000), antibody captured on a CM5 chip, cytokine injected as analyte, 25 C
From the text: (§1) With the BIAcore® 3000, 4 canals (Flow cell) are designed on the CM5 sensor surface. The polyclonal rabbit anti mouse IgG antibodies are covalently coupled on the 2nd, 3rd and 4th flow cells (FC), leaving the first FC (FC1) blank for reference subtraction. The first FC (FC1) is only activated (EDC/NHS) and deactivated (ethanolamine hydrochloride NaOH), without injection of capture antibody.
(§2) First the ligand (interest antibody) is captured by the immobilised antibodies. Diluted antibodies Mc12A10-13 (5 μg/mL), Mc35B11-8 (8 μg/mL), McCXCL1 (2 μg/mL), McCXCL7 (1 μg/mL), McCXCL8 (3 μg/mL), McPan CXCL1-2-3 (5 μg/mL) are captured by the polyclonal rabbit anti mouse IgG antibodies immobilized on the CM5 sensor chip with a 3 minutes injection at a flow rate of 5 μL/min. The complex “capture antibody—ligand” is stabilized during 10 minutes before the injection of the analyte (cytokines). This capture is a non-covalent interaction.
(§3) Then a range of cytokine concentration is injected (analyte) over the captured antibody (ligand). Cytokines CXCL1, CXCL3, NAP2, IL8 are injected over the captured ligand for a range of concentration from 0 to 10 μg/mL, at a flow rate of […]. The complex “ligand/analyte” is formed. The association and the dissociation phases are monitored over about 3 minutes and 2.5 minutes respectively. The signal induced is measured in RU (Resonance Unit).

human chemokine CXCL7 [3] = target: T3, human chemokine CXCL7; test: as above
From the text: as §1, §2, §3

human chemokine CXCL1 [4] = target: T4, human chemokine CXCL1; test: as above
From the text: as §1, §2, §3

human chemokine CXCL8 [5] = target: T5, human chemokine CXCL8; test: as above
From the text: as §1, §2, §3

human chemokine CXCL7 [6] = target: T3, human chemokine CXCL7; test: SPR (Biacore 3000), antibody captured on a CM5 chip, cytokine as analyte, 25 C; head 'x M10Exp8' applied, agrees with 1/Kd
From the text: as §1, §2, §3

human chemokine CXCL8 [7] = target: T5, human chemokine CXCL8; test: SPR (Biacore 3000), antibody captured on a CM5 chip, cytokine as analyte, 25 C; head 'x M10Exp8' applied as printed, but this does not agree with 1/Kd of the same pair (about 5.03e7)
From the text: as §1, §2, §3

human chemokine CXCL1 [8] = target: T4, human chemokine CXCL1; test: SPR (Biacore 3000), antibody captured on a CM5 chip, cytokine as analyte, 25 C; head 'x M10Exp8' applied as printed, but this does not agree with 1/Kd of the same pair (about 8.47e7)
From the text: as §1, §2, §3

human chemokine CXCL1 [9] = target: T4, human chemokine CXCL1; test: SPR (Biacore 3000), antibody captured on a CM5 chip, cytokine as analyte, 25 C; head 'x M10Exp8' applied as printed, but this does not agree with 1/Kd of the same pair (about 6.4e7)
From the text: as §1, §2, §3

CXCL3 [10] = target: T2, CXCL3; test: SPR (Biacore 3000), antibody captured on a CM5 chip, cytokine as analyte, 25 C; head 'x M10Exp8' applied as printed, but this does not agree with 1/Kd of the same pair (about 1.55e7)
From the text: as §1, §2, §3

human chemokine CXCL8 [11] = target: T5, human chemokine CXCL8; test: SPR (Biacore 3000), antibody captured on a CM5 chip, cytokine as analyte, 25 C; head 'x M10Exp8' applied as printed, but this does not agree with 1/Kd of the same pair (about 2.26e7)
From the text: as §1, §2, §3

Row | binding result [1] | Kd (CXCL3 [2]) [nM] | Kd (human chemokine CXCL7 [3]) [nM] | Kd (human chemokine CXCL1 [4]) [nM] | Kd (human chemokine CXCL8 [5]) [nM] | Ka (human chemokine CXCL7 [6]) [M⁻¹] | Ka (human chemokine CXCL8 [7]) [M⁻¹] | Ka (human chemokine CXCL1 [8]) [M⁻¹] | Ka (human chemokine CXCL1 [9]) [M⁻¹] | Ka (CXCL3 [10]) [M⁻¹] | Ka (human chemokine CXCL8 [11]) [M⁻¹] | Binder
1 | binds | 247 | 4.99 | 11.8 | 19.9 | 2.01e+08 | 5.03e+07 | 8.5e+07 |  |  |  | monoclonal rat IgG antibody produced by the hybridoma 35B11-8 (CNCM I-4618) (antibody, V domains shown, also called Mc35B11-8) VH: EVQLVESGGGLVQPGRSLKLSCVASGFTFNNYWMTWIRQAPGKGLEWVASISKTGSNPYYPDSVKGRFTISRDNAKNTLYLQMNSLRSEDTATYYCARDGTTPLDYWGQGVMVTVSS VL: DIQMTQSPPSLSASLGDKVTITCQASQNINKYIAWYQQKPGKAPGLLIHYTSTLVSGIPSRFSGSGSGRVYSFSISNVESEDIASYYCLQYDNSPFPFGAGTKLELK
2 | binds | 64.5 | 3.3 | 15.6 | 44.3 | 3.03e+08 |  |  | 6.4e+07 | 1.55e+07 | 2.26e+07 | monoclonal rat IgG antibody produced by the hybridoma 12A10-13 (CNCM I-4617) (antibody, V domains shown, also called Mc12A10-13) VH: QVQLQQSGAELAKPGSSVKISCKASGYTFTSYYISWIKQTTGQGLEYIGYINTGSGGTNYNEKFKGKATLTVDKSSSTAFMQLSSLTPDDSAVYYCASPSGGFDYWGQGVMVTVSS VL: EIVLTQSPTTMAASPGEKVTITCRASSSVSYMHWYQQKPGASPKPWIYDTSKLASGVPNRFSGSGSGTSYSLTISSMETEDTATYYCQQWSSNSLTFGSGTKLEIK
